First the molecules themselves.
B1: <IGF-1R> F13B5 Fab fragment (affinity-matured <IGF-1R> HUMAB-Clone 18) (Fab, V domains shown)
VH: QVELVESGGGVVQPGRSQRLSCAASGFTFSSYGMHWVRQAPGKGLEWVAIIWFDGSSTYYADSVRGRFTISRDNSKNTLYLQMNSLRAEDTAVYFCARELGRRYFDLWGRGTLVSVSS
VL: EIVLTQSPATLSLSPGERATLSCRASQSVSSYLAWYQQKPGQAPRLLIYQASKRATGIPARFSGSGSGTDFTLTISSLEPEDFAVYYCQQRSKYPPWTFGQGTKVESK
B2: <IGF-1R> L39D7 Fab fragment (affinity-matured <IGF-1R> HUMAB-Clone 18) (Fab, V domains shown)
VH: B1 VH
VL: B1 VL with S31K, Y32Q, Q50N
B3: <IGF-1R> L37F7 Fab fragment (affinity-matured <IGF-1R> HUMAB-Clone 18) (Fab, V domains shown)
VH: B1 VH
VL: B1 VL with Y32Q, Q50K, S52T, K53N
B4: <IGF-1R> L31D11 Fab fragment (affinity-matured <IGF-1R> HUMAB-Clone 18) (Fab, V domains shown)
VH: B1 VH
VL: B1 VL with Q27R, S30Y, Y32S, Q50K, K53S, Y94W
B5: <IGF-1R> L31D7 Fab fragment (affinity-matured <IGF-1R> HUMAB-Clone 18) (Fab, V domains shown)
VH: B1 VH
VL: B1 VL with S30I, S31Q, Y32S, Q50R, Y94W

Residue numbers refer to the chain shown, from its start.

The first experiment deals with human IGF-1R (soluble, analyte in SPR) (human) (UniProt P08069). The experiment can be described thus: SPR (ProteOn XPR36), 25 C, Fab captured by anti-Fab, IGF-1R as analyte.
B1 returned a Kd of 1.47 nM, a koff of 0.00025 s⁻¹ and an association rate constant (kon) of 170000 M⁻¹ s⁻¹.

Take B2: the dissociation constant (Kd) was 0.769 nM, the off-rate constant (koff) turned out to be 0.00027 s⁻¹ and the association rate constant (kon) was found to be 351000 M⁻¹ s⁻¹.

On to B3, for which the dissociation constant Kd turned out to be 1.02 nM, the koff worked out at 0.000237 s⁻¹ and the kon worked out at 232000 M⁻¹ s⁻¹.

In turn, B4 yielded a dissociation constant (Kd) of 0.269 nM, an off-rate constant (koff) of 0.000153 s⁻¹ and a kon of 571000 M⁻¹ s⁻¹.

Molecule B5 came in with a Kd of 1.03 nM, a dissociation rate constant (koff) of 0.000538 s⁻¹ and a kon of 523000 M⁻¹ s⁻¹.

The next experiment has the same target. The experiment can be described thus: SPR (ProteOn XPR36), 25 C, Fab captured by anti-Fab; ratio against parental Ak18.
Regarding B1, the x-fold increase of binding affinity (=KD (unmodified AK18)/KD (CDR-modified)) turned out to be 12.4 fold.

As to B2, the x-fold increase of binding affinity (=KD (unmodified AK18)/KD (CDR-modified)) was found to be 23.8 fold.

As for B3, the x-fold increase of binding affinity (=KD (unmodified AK18)/KD (CDR-modified)) came to 17.9 fold.

Turning to B4, the x-fold increase of binding affinity (=KD (unmodified AK18)/KD (CDR-modified)) was determined as 68 fold.

As to B5, the x-fold increase of binding affinity (=KD (unmodified AK18)/KD (CDR-modified)) was 17.8 fold.

Source of the values: US20140193415A1.
